Data: patent US20220073565A1 (University of Washington, published 2022)
No end group written: not given here.

Legend:
[1] = target: T1, BclB (UniProt Q9HD36 11-178, limits assumed); assay: global fit of the thermodynamic model to bio-layer interferometry data (target or key immobilised)
T1 construct: also called Bcl2 homolog BclB
T1 sequence (looked up): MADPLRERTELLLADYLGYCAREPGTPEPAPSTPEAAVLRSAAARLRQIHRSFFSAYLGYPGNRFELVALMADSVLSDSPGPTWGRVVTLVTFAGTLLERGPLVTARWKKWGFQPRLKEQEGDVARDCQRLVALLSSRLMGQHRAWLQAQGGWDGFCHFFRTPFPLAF

[2] = target: T2, Bcl2 (UniProt P10415 1-207, limits assumed, biotinylated); assay: as above
T2 construct: Loaded on streptavidin biosensors; also called biotinylated Bcl2
T2 sequence (P10415 1-207 limits assumed): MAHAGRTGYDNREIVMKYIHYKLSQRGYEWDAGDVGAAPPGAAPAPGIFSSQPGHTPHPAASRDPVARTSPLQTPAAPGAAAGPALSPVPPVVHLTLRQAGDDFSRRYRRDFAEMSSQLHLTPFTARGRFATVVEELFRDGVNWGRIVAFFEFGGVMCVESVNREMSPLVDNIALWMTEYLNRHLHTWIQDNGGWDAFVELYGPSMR

[3] = target: T2, Bcl2; assay: bio-layer interferometry, Bcl2 immobilised, 250 nM BimLOCKR with and without key
Description: The range of key concentrations over which BimLOCKR is activated can be controlled by tuning KCK by varying the length of the key since the interaction energy is roughly proportional to the total surface area of interacting residues. […] Truncating an additional five residues completely negates key activation, indicating the equilibria are very sensitive to small changes in free energy as expected from our model (FIG. 2d). […] Bio-layer interferometry experiments were performed with target immobilized assayed against the switch with or without key in solution, as well as with key immobilized and assayed against the switch alone or with target in solution. […] This fit has an RMSE (root-mean-square-error) of 0.072 nm to the observed BLI data.
BLI measurements were made on an Octet® RED96 System (ForteBio) with streptavidin (SA) coated biosensors and all analysis was performed within ForteBio Data Analysis Software version 9.0.0.10. Assays were performed with protein diluted into HBS-EP+ Buffer from GE (10 mM HEPES, 150 mM NaCl, 3 mM EDTA, 0.05% v/v Surfactant P20, 0.5% non-fat dry milk, pH7.4 at room temperature). Biotinylated Bcl2 was loaded onto the SA tips to a threshold of 0.5 nm programmed into the machine's protocol.

[4] = target: T3, YFP-degronSwitcha; assay: cell-based or functional assay
T3 sequence: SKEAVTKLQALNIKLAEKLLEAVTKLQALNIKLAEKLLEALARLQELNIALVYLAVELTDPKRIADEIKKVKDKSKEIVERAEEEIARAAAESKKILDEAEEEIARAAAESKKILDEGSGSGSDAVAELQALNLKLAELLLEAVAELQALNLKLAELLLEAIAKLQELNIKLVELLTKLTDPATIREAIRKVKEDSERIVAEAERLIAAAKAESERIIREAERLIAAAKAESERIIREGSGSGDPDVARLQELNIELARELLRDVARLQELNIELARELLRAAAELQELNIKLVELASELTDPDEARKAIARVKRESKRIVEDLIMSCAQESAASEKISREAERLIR

[5] = target: dCas9-VP64-RFP-degronSwitcha; assay: cell-based or functional assay
[6] = target: SynTF-RFP-degronSwitcha; assay: cell-based or functional assay
[7] = target: T2, Bcl2; assay: bio-layer interferometry (Octet), Bcl2 immobilised, switch with nine residue toehold
[8] = target: T4, mSin3A-PAH2 domain (UniProt Q60520 300-383, biotin); assay: bio-layer interferometry, Biotin-mSin3A-PAH2 on streptavidin tips
T4 construct: domain: PAH2; 0.1 µg immobilised on streptavidin biosensor tips; also called Biotin-mSin3A-PAH2; PAH2 domain of the mSin3A transcriptional repressor
T4 sequence (looked up): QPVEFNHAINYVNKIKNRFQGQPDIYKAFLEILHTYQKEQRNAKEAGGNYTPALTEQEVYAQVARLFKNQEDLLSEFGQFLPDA
From the text: FIG. 12a-d: Designed Mad1-SID LOCKR switches for key-dependent transcriptional repression. FIG. 12a. Crystal structure of the interaction between Mad1-SID domain (white) and the PAH2 domain of the mSin3A transcriptional repressor (black) (PDB ID: 1E91). Caging of the Mad1-SID domain should enable key-dependent recruitment of the transcriptional repressor mSin3A enabling precise epigenetic regulation. FIG. 12b. Designed Mad1-LOCKR switches, with Cage component encoding the Mad1-SID sequence at different positions (dark gray). FIG. 12c. SDS-PAGE gel showing successfully purified 1fix302Mad1 (1) , 1fix_309_Mad1 (2) and MBP_Mad1 (3). FIG. 12d. Biolayer interferometry analysis of key-activated binding of the Mad1-LOCKR switches to the purified rnSin3A-PAH2 domain. MBP-Mad1 is a positive control for mSin3a-PAH2 binding. […] Kinetic assays were performed by immobilizing 0.1μg of Biotin-mSin3A-PAH2 protein on Streptavidin biosensor tips (ForteBio). Protein cages were tested at 50 nM in presence or absence of 500 nM Keyₐ.

B1: BimLOCKR (18-residue extension with a 9 residue toehold) (designed binder)
chain: MGSSHHHHHHSSGLVPRGSHMSKEAVTKLQALNIKLAEKLLEAVTKLQALNIKLAEKLLEALARLQELNIALVYLAVELTDPKRIADEIKKVKDKSKEIVERAEEEIARAAAESKKILDEAEEEIARAAAESKKILDEGSGSGSDAVAELQALNLKLAELLLEAVAELQALNLKLAELLLEAIAKLQELNIKLVELLTKLTDPATIREAIRKVKEDSERIVAEAERLIAAAKAESERIIREAERLIAAAKAESERIIREGSGSGDPDVARLQELNIELARELLRDVARLQELNIELARELLRAAAELQELNIKLVELASELTDEIWIAQELRRIGDEFNAYYADAERLIREAAAASEKISREAERLIREAA
notes: the tested form has the latch truncated by nine residues at the C-terminus (toehold); also called BimLOCKRa
Kd [1]: 32 nM | Kd [2]: 28 nM | fold activation of binding by the key (with key against without key) [3]: ~40 fold

B2: Keya-BFP (designed binder, not shown: large carriers)
chain: EARKAIARVKRESKRIVEDAERLIREAAAASEKISREAERLIREAAAASEKISRE
modifications: also: C-terminal fusion to BFP (mTagBFP2), linker not given here
reduction of YFP fluorescence (flow cytometry, S. cerevisiae) [4]: < 73% | reduction of RFP fluorescence upon induction of Key at 31.25 nM E2 [5]: 78% | reduction of pTet7x-YFP reporter fluorescence upon induction of Key at 31.25 nM E2 [5]: 41%

B3: Keya-BFP-NLS (designed binder, not shown: large carriers)
chain: EARKAIARVKRESKRIVEDAERLIREAAAASEKISREAERLIREAAAASEKISRE
reduction of RFP fluorescence at 31.25 nM E2, maximal Key induction [6]: 61% | reduction of pSynTF-YFP reporter fluorescence at 31.25 nM E2, maximal Key induction [6]: 82%

B4: BimLOCKRc (nine residue toehold on the latch) (designed binder)
chain: MGSSHHHHHHSSGLVPRGSHMSLEAVLKLAELNLKLSDKLAEAVQKLAALLNKLLEKLSEALQRLFELNVALVTLAIELTDPKRIADEIKKVKDKSKEIVERAEEEIARAAAESKKILDEAEEEIARAAAESKKILDEGSGSGSDAVAELQALNLKLAELLLEAVAELQALNLKLAELLLEAIAKLQELNIKLVELLTKLTDPATIREAIRKVKEDSERIVAEAERLIAAAKAESERIIREAERLIAAAKAESERIIREGSGSNDPLVARLQELLIEHARELLRLVATSQEIFIELARAFLANAAQLQEAAIKAVEAASENGSGEIWIAQELRRIGDEFNAYYAQNQKLLKDHKRAQEKLNRELEELKKKHKK
notes: Entry is printed with full latch and optional His tag; tested with a nine residue toehold (latch truncated by nine residues)
fold activation of binding by the cognate key (with key against without key) [7]: 8 fold

B5: 1fix_302_Mad1 (designed binder)
chain: MGSHHHHHHGSGSENLYFQGSKEAAKKLQDLNIELARKLLEASTKLQRLNIRLAEALLEAIARLQELNLELVYLAVELTDPKRIRDEIKEVKDKSKEIIRRAEKEIDDAAKESKKILEEARKAIRDAAEESRKILEEGSGSGSDALDELQKLNLELAKLLLKAIAETQDLNLRAAKAFLEAAAKLQELNIRAVELLVKLTDPATIRRALEHAKRRSKEIIDEAERAIRAAKRESERIIEEARRLIEKAKEESERIIREGSGSGDPDIKKLQDLNIELARELLRAHAQLQRLNLELLRELLRALAQLQELNLDLLRLASELTNIQMLLEAADYLERESKRIVEDAERLIREAAAASEKISREAERSIREAAAASEKISRE
notes: Optional His-TEV tag printed in parentheses
binding result [8]: no binding

B6: BimLOCKRb (nine residue toehold on the latch) (designed binder)
chain: MGSSHHHHHHSSGLVPRGSHMSHAAVIKLSDLNIRLLDKLLQAVIKLTELNAELNRKLIEALQRLFDLNVALVHLAAELTDPKRIADEIKKVKDKSKEIVERAEEEIARAAAESKKILDEAEEEIARAAAESKKILDEGSGSGSDAVAELQALNLKLAELLLEAVAELQALNLKLAELLLEAIAKLQELNIKLVELLTKLTDPATIREAIRKVKEDSERIVAEAERLIAAAKAESERIIREAERLIAAAKAESERIIREGSGSNDPQVAQNQETFIELARDALRLVAENQEAFIEVARLTLRAAALAQEVAIKAVEAASEGGSGSGNEIWIAQELRRIGDEFNAYYAEHKEIHDKLRKKNKKAREDLKKKADE
notes: as for B4
fold activation of binding by the cognate key (with key against without key) [7]: 22 fold
